This note sets out measurements from PMC3098740 (Biochemistry, 2010).

The experiment has as its target T1, Methyl-coenzyme M reductase (MCR) subunit α (Methanothermobacter marburgensis …, UniProt P11558 1-550).
T1 sequence (looked up): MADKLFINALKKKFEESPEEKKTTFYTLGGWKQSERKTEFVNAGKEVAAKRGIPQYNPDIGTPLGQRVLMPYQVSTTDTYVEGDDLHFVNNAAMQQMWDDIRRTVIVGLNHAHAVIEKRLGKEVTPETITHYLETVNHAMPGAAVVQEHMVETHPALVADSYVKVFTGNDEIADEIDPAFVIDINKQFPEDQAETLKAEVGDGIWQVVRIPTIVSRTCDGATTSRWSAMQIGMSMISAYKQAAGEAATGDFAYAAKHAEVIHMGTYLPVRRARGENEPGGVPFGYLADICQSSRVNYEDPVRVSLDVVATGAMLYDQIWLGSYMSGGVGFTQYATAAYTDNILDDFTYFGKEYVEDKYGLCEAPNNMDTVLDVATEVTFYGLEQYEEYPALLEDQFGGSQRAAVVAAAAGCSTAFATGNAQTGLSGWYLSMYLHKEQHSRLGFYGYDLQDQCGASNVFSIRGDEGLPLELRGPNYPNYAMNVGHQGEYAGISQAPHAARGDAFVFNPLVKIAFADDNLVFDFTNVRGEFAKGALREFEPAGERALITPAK
Kind of experiment: crystal structure.

B1: Methyl-coenzyme M reductase (MCR) subunit β (natural protein, UniProt P11560 1-443, looked up)
chain: MAKFEDKVDLYDDRGNLVEEQVPLEALSPLRNPAIKSIVQGIKRTVAVNLEGIENALKTAKVGGPACKIMGRELDLDIVGNAESIAAAAKEMIQVTEDDDTNVELLGGGKRALVQVPSARFDVAAEYSAAPLVTATAFVQAIINEFDVSMYDANMVKAAVLGRYPQSVEYMGANIATMLDIPQKLEGPGYALRNIMVNHVVAATLKNTLQAAALSTILEQTAMFEMGDAVGAFERMHLLGLAYQGMNADNLVFDLVKANGKEGTVGSVIADLVERALEDGVIKVEKELTDYKVYGTDDLAMWNAYAAAGLMAATMVNQGAARAAQGVSSTLLYYNDLIEFETGLPSVDFGKVEGTAVGFSFFSHSIYGGGGPGIFNGNHIVTRHSKGFAIPCVAAAMALDAGTQMFSPEATSGLIKEVFSQVDEFREPLKYVVEAAAEIKNEI
As for B1, the binding result was “binds”.
